In assay [1] the target is Crotalus durissus terrificus venom. The experiment in a line: ELISA, C.d.t. venom-coated plate, dilution 1:3125. Background: ELISA stands for enzyme-linked immunosorbent assay.
Assay [2] has the same target. Briefly: ELISA, C.d.t. venom-coated plate (5 µg/ml), undiluted.
Assay [3] has the same target. Briefly: ELISA, C.d.t. venom-coated plate (5 µg/ml), dilution 1:5.
The target is the same in assay [4]. Briefly: ELISA, C.d.t. venom-coated plate, dilution 1:312,500.
The target is the same in assay [5]. Briefly: ELISA, C.d.t. venom-coated plate, dilution 1:5.
The target is the same in assay [6]. The experiment in a line: ELISA, C.d.t. venom-coated plate (5 µg/ml), dilution 1:125.
Assay [7] has the same target. The experiment in a line: ELISA, C.d.t. venom-coated plate, dilution 1:12,500.
The target is the same in assay [8]. Briefly: ELISA, C.d.t. venom-coated plate, dilution 1:625.
Assay [9] shares this target. Briefly: ELISA, C.d.t. venom-coated plate (5 µg/ml), dilution 1:625.
For assay [10] the target is unchanged. Briefly: ELISA, C.d.t. venom-coated plate (5 µg/ml), dilution 1:25.
For assay [11] the target is unchanged. The experiment in a line: ELISA, C.d.t. venom-coated plate (5 µg/ml), dilution 1:3125.
For assay [12] the target is unchanged. The experiment in a line: ELISA, C.d.t. venom-coated plate, dilution 1:25.
Assay [13] shares this target. The experiment in a line: ELISA, C.d.t. venom-coated plate, dilution 1:62,500.
Assay [14] has the same target. The experiment in a line: ELISA, C.d.t. venom-coated plate, dilution 1:125.
Assay [15] has the same target. Briefly: ELISA, C.d.t. venom-coated plate, dilution 1:500.
Assay [16] shares this target. The experiment in a line: ELISA, C.d.t. venom-coated plate, dilution 1:2,500.

A value given as a limit tells only on which side of the number the result lay.

“preimmune IgY (PEG preparation from eggs of unimmunized hens or purchased eggs) (antibody)”: the absorbance (ELISA) was less than 0 OD in assay [1]; 0.003 OD in assay [2]; less than 0 OD in assay [3]; less than 0 OD in [5]; 0.003 OD in assay [6]; less than 0 OD in assay [8]. Moreover, the absorbance (ELISA) was 0 OD in [9]; 0 OD in assay [10]; 0.002 OD in assay [11]; 0.016 OD in [12]; less than 0 OD in assay [14]. Further, the absorbance (412 nm filter) turned out to be 0.01 OD in assay [4]; 0.001 OD in assay [7]; 0.001 OD in [13]; 0.005 OD in assay [15]; 0.004 OD in assay [16].

For the origin of these results see patent US20040235118A1.
